Our source for the Km, kcat and kcat/Km values is article PMC4169312 (The FEBS journal, 2014).

What all share (experiment): RP-HPLC product quantification, Michaelis-Menten fit
The target in data set [1] is sMAT (methionine adenosyltransferase from Sulfolobus solfataricus) (Saccharolobus solfataricus, UniProt Q980S9). The format is biochemical. The note with it: 65 °C, pH 8.0, 2.5 mM ATP, 5 mM MgCl2, 40 mM KCl.
Substrate in data set [2]: Nc1ncnc2c1ncn2[C@@H]1O[C@H](COP(=O)(O)OP(=O)(O)OP(=O)(O)O)[C@@H](O)[C@H]1O
The format is biochemical, Saccharolobus solfataricus. The conditions noted are these: 65 °C, pH 8.0, 2.5 mM L-methionine, 5 mM MgCl2, 40 mM KCl.

Substrate in data set [3]: CSCC[C@H](N)C(=O)O
The format is biochemical, Saccharolobus solfataricus. The note with it: 65 °C, pH 8.0, 2.5 mM ATP, 5 mM MgCl2, 40 mM KCl.

On to `CCSCC[C@H](N)C(=O)O` [L-ethionine, (2S)-2-amino-4-(ethylsulfanyl)butanoic acid], for which the Km (commonly the substrate concentration at which the rate is half of its maximum) in data set [1] stood at 7 ± 1.6 µM.

B1: sMAT (methionine adenosyltransferase from Sulfolobus solfataricus) (Saccharolobus solfataricus P2) (protein)
chain: MRNINVQLNPLSDIEKLQVELVERKGLGHPDYIADAVAEEASRKLSLYYLKKYGVILHHNLDKTLVVGGQATPRFKGGDIIQPIYIIVAGRATTEVKTESGIDQIPVGTIIIESVKEWIRNNFRYLDAERHVIVDYKIGKGSSDLVGIFEASKRVPLSNDTSFGVGFAPLTKLEKLVYETERHLNSKQFKAKLPEVGEDIKVMGLRRGNEVDLTIAMATISELIEDVNHYINVKEQVRNQILDLASKIAPGYNVRVYVNTGDKIDKNILYLTVTGTSAEHGDDGMTGRGNRGVGLITPMRPMSLEATAGKNPVNHVGKLYNVLANLIANKIAQEVKDVKFSQVQVLGQIGRPIDDPLIANVDVITYDGKLTDETKNEISGIVDEMLSSFNKLTELILEGKATLF
As to B1, in data set [2], the Km came out at 14.5 ± 2.5 µM; the turnover number (kcat) (as a rule, the maximal rate divided by the concentration of active sites) turned out to be 0.0468 ± 0.00133 s⁻¹; the kcat/Km (commonly the second-order rate constant that governs catalysis at low substrate concentration) came out at 3230 ± 533 M⁻¹ s⁻¹. In addition, in data set [3], the Km came out at 2.8 ± 0.7 µM, the kcat stood at 0.0487 ± 0.00117 s⁻¹ and the kcat/Km stood at 17400 ± 1670 M⁻¹ s⁻¹.
